Source: patent US20220162308A1 (Novartis, published 2022)
Substitutions are numbered along the chain they refer to.

What was measured:
[1] = molecular target: T1, Human CD48 on cells (human, UniProt P09326 27-220); experiment: cell-based or functional assay
T1 sequence: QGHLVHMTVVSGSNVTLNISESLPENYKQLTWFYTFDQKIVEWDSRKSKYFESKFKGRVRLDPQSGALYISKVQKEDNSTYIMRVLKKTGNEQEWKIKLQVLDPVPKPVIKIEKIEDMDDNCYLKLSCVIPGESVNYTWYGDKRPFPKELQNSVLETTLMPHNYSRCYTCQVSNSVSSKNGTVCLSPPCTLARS

[2] = molecular target: T2, 2249 (Homo sapiens, UniProt P09326); experiment: ELISA: 1:10 diluted HEK293T supernatant of the CD48-mouse IgG construct; antibody at 25, 250 and 500 ng/mL; detection with goat anti-mouse IgG (H+L) HRP; Mean OD450-570
T2 chain: T1 sequence with D44A, S45A, R46G
Method: (§1) Applying the 3D structure models of the CD48 protein, three exposed loops of the protein were selected and changed by site directed mutagenesis utilizing PCR. Antibody binding epitopes were determined by ELISA. […] The template construct, hCD48EC:mouse-Ig originates from the expression plasmid generated to express the human CD48-mouse IgG1 fusion protein for immunization amplified from the commercial vector “Trueclone, CD48 (untagged)-Human CD48 molecule” (Origene, NM_001778.2). Primer for the site directed mutagenesis were synthesized by Microsynth (Switzerland).

[3] = molecular target: T3, Non-mutated CD48-mouse IgG fusion construct (human; mouse, UniProt P09326 27-220, limits assumed); experiment: as above
T3 construct: Used as HEK293T culture supernatant in the ELISA; also called hCD48EC:mouse-Ig; human CD48-mouse IgG1 fusion protein
T3 sequence: T1 sequence
Method: as §1

[4] = molecular target: T4, Construct #2248 (human; mouse, UniProt P09326 27-220, limits assumed); experiment: as above
T4 construct: also called hCD48EC:mouse-Ig with ENYKQ modified into GSSKQ
T4 chain: T1 sequence with E25G, N26S, Y27S
Method: as §1

[5] = molecular target: T5, Construct #2250 (human; mouse, UniProt P09326 27-220, limits assumed); experiment: as above
T5 construct: also called hCD48EC:mouse-Ig with KKTGNE modified into KKDASG
T5 chain: T1 sequence with T89D, G90A, N91S, E92G
Method: as §1

B1: humanized CD48A (antibody, human IgG1, kappa)
heavy: not shown
light: EIVLTQSPDFQSVTPKEKVTITCRASQSIGSNIHWYQQKPDQSPKLLIKYTSESISGVPSRFSGSGSGTDFTLTINSLEAEDAATYYCQQSNSWPLTFGGGTKVEIKRTVAAPSVFIFPPSDEQLKSGTASVVCLLNNFYPREAKVQWKVDNALQSGNSQESVTEQDSKDSTYSLSSTLTLSKADYEKHKVYACEVTHQGLSSPVTKSFNRGEC
notes: also called humanized MEM102 antibody; anti-CD48A
- IC50 (nM), cell proliferation/survival (CellTiter-Glo), KMS-21-BM, with anti-human Fc-VC-MMAE [1]: 0.016 nM
- IC50 (nM), cell proliferation/survival (CellTiter-Glo), KMS-27, with anti-human Fc-VC-MMAE [1]: 0.001 nM
- IC50 (nM), cell proliferation/survival (CellTiter-Glo), NCI-H929, with anti-human Fc-VC-MMAE [1]: 0.007 nM
- Span (Amax), KMS-21-BM, with anti-human Fc-VC-MMAE [1]: 92
- Span (Amax), KMS-27, with anti-human Fc-VC-MMAE [1]: 93.4
- Span (Amax), NCI-H929, with anti-human Fc-VC-MMAE [1]: 100
- EC50 (read off the curve) [2]: ~0.03 µg/mL
- EC50 (read off the curve) [3]: ~0.02 µg/mL
- binding result [4]: no binding (tested: 500 ng/mL)
- EC50 (read off the curve) [5]: ~0.02 µg/mL
